Results on one molecule are retold here after patent publication US20230110875A1 (US Dept. of Health and Human Services, published 2023).

The experiment deals with T1, mouse CD276-AP fusion protein (mouse, UniProt Q8VE98 29-248).
T1 construct: Coated on the ELISA plate at 2 ug/ml; not shown: AP fusion partner
T1 sequence (looked up): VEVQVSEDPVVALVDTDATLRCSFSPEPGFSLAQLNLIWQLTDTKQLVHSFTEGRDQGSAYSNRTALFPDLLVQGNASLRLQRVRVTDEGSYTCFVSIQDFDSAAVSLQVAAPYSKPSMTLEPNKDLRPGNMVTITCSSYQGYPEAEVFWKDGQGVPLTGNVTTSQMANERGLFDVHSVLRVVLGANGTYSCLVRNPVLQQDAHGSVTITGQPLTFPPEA
Briefly: ELISA, mouse CD276-AP fusion protein coated at 2 ug/ml, serially diluted scFv-Fc culture medium, HRP goat anti-human IgG, OD 450 nm. Here is the method:
50 μl of the diluted mouse or human CD276-AP fusion protein in PBS at 2 μg/ml was coated in a 96-well plate at 4° C. overnight. Transiently expressed scFv-Fc fusion protein in the culture medium was serially diluted and added into the target protein coated wells. After washing, a 1:3000 diluted horseradish peroxidase (HRP) conjugated goat anti-human IgG antibody was added for 1 hr at RT. After washing, 3, 3, 5, 5′-Tetramethylbenzidine (TMB) substrate was added, and the optical density (O.D.) was read at 450 nm.

B1: Clone CD276.1 (m851) scFv-Fc fusion protein (Fc fusion)
scFv: QVQLQQSGAEVKKPGSSVKVSCKASGGTFSSYAISWVRQAPGQGLEWMGGIIPILGIANYAQKFQGRVTITADESTSTAYMELSSLRSEDTAVYYCARGGAGGSGSYYPLIWGQGTTVTVSSGGGGSGGGGSGGGGSEIVLTQSPATLSLSPGERATLSCGASQSVSSSYLAWYQQKPGQAPRLLIYDASSRATGIPARFSGSGSGTDFTLTISSLEPEDFAVYYCQQRSSWPPTWTFGQGTKLEIKR
notes: also called m851 (CD276.1); not shown: Fc-Avi tag from modified pSecTag vector
Consider B1, for which the binding result was “no binding”.
